Assays:
CD25 on Karpas299 cells = biological target: T1, CD25 on Karpas299 cells (Homo sapiens, UniProt P01589); assay: Binding of HuMax-TAC to CD25 +ve cell lines by flow cytometry (Karpas299)
T1 construct: Surface CD25 expression on Karpas and SU-DHL-1 was determined by flow cytometry; endogenous in cells; host or cells: Karpas299 and SU-DHL-1 cell lines
T1 sequence (P01589 22-272): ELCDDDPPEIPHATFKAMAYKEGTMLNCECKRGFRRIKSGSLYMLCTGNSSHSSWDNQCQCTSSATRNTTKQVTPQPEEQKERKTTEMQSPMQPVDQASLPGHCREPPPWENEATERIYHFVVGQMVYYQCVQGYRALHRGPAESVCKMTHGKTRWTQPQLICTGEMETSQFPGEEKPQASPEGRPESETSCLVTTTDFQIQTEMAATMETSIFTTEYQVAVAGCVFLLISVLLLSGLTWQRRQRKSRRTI
Method: (§1) Karpas299 and SU-DHL-1 anaplastic large cell lymphoma (ALCL)-derived cell lines have been previously reported to express CD25 (2,3). To confirm their expression profile, CD25 surface expression was analyzed by flow cytometry. HuMax-TAC was used as a CD25-specific antibody. B12 was used as a negative control antibody.
(§2) Surface CD25 expression on Karpas and SU-DHL-1 was determined by flow cytometry. Graphs represent the average of three (Karpas299) or four independent experiments (SU-DHL-1). EC50 values are reported in ng/ml.

CD25 on SU-DHL-1 cells = biological target: T2, CD25 on SU-DHL-1 cells (Homo sapiens, UniProt P01589); assay: Binding of HuMax-TAC to CD25 +ve cell lines by flow cytometry (SU-DHL-1)
T2 construct: endogenous in cells; host or cells: Karpas299 and SU-DHL-1 cell lines
T2 sequence (P01589 22-272): T1 sequence (P01589 22-272)
Method: as §1, §2

binding to cell surface CD25 (flow cytometry) (CD25 on Karpas299 cells): specifically bound
EC50 (CD25 on Karpas299 cells; flow cytometry, average of three experiments): 0.02021 µg/mL
binding to cell surface CD25 (flow cytometry) (CD25 on SU-DHL-1 cells): specifically bound
EC50 (CD25 on SU-DHL-1 cells; flow cytometry, average of four experiments): 0.03406 µg/mL
Substance: HuMax-TAC: anti-CD25 antibody comprising a VH domain of SEQ ID NO. 1 and a VL domain of SEQ ID NO. 2

Reference: US9931415B2, “Pyrrolobenzodiazepine-antibody conjugates” (ADC THERAPEUTICS S.A., priority 2012, dated 2018)
